Assay results reported in patent CN111303280A (INST MILITARY MEDICINE ACADEMY MILITARY SCIENCES PLA, dated 2020).

Key:
[1] = molecular target: T1, SARS-CoV-2 刺突糖蛋白S (重组S抗原) (SARS-CoV-2, UniProt P0DTC2 16-1213); assay: ELISA, coated S antigen 2 μg/mL, HRP anti-human Fc
SARS-CoV-2 S2抗原 (重组) = molecular target: T2, SARS-CoV-2 S2抗原 (重组) (SARS-CoV-2, UniProt P0DTC2 686-1213); assay: ELISA, coated S2 antigen 2 μg/mL
T2 construct: domain: S2

[2] = molecular target: T1, SARS-CoV-2 刺突糖蛋白S (重组S抗原); assay: BLI (Fortebio Octet QKe), 4A8 captured on AHC sensors, S protein as analyte
SARS-CoV-2 RBD抗原 (重组) = molecular target: T3, SARS-CoV-2 RBD抗原 (重组) (SARS-CoV-2, UniProt P0DTC2 319-541); assay: ELISA, coated RBD antigen 2 μg/mL
T3 construct: domain: RBD

B1: 抗SARS-CoV-2全人源单克隆抗体4A8 (antibody, V domains shown)
VH: EVQLVESGAEVKKPGASVKVSCKVSGYTLTELSMHWVRQAPGKGLEWMGGFDPEDGETMYAQKFQGRVTMTEDTSTDTAYMELSSLRSEDTAVYYCATSTAVAGTPDLFDYYYGMDVWGQGTTVTVSS
VL: EIVMTQSPLSSPVTLGQPASISCRSSQSLVHSDGNTYLSWLQQRPGQPPRLLIYKISNRFSGVPDRFSGSGAGTDFTLKISRVEAEDVGVYYCTQATQFPYTFGQGTKVDIK
notes: also called 单抗4A8
EC50 [1]: 4.6 ng/mL
binding result (SARS-CoV-2 S2抗原 (重组)): no binding (tested: 首孔9ug/ml)
Kd [2]: 1 nM
koff [2]: 7.77e-05 s⁻¹
kon [2]: 77500 M⁻¹ s⁻¹
binding result (SARS-CoV-2 RBD抗原 (重组)): no binding (tested: 首孔9ug/ml)
